Measured values published in patent US20090325867A1, “RECEPTOR-SPECIFIC TUMOUR NECROSIS FACTOR-RELATED APOPTOSIS-INDUCING LIGAND (TRAIL) VARIANTS” (MEDICAL RESEARCH COUNCIL, priority 2005, published 2009).

Assays:
[1] = target: T1, MCF-7 cells (Homo sapiens); experiment: TRAIL DISC activation in MCF-7 cells; format: cell-based; conditions: FIG. 5B
T1 construct: the breast tumour cell line MCF-7 signals to apoptosis via TRAIL-R1; endogenous in cells; host or cells: MCF-7 (clone F43)
Description: Ramos and Jurkat T cells (clone E6-1) were cultured as described (MacFarlane et al, 2005 ibid.). The breast tumour cell line, MCF-7 (clone F43) was cultured as described previously (MacFarlane et al., 2000 J. Cell Biol. 148, 1239-1254). Cells were cultured for either 4 h (Ramos and Jurkat) or 6 h (MCF-7) with His-TRAIL (MacFarlane et al, 1997 J Biol Chem 272, 25417-25420), HGS-ETR1 or HGS-ETR2 (Human Genome Sciences), or a mutant form of His-TRAIL (MacFarlane et al, 2005 ibid.). Samples were analyzed for apoptosis, Western blotting, or TRAIL DISC activation as described (MacFarlane et al, 2005 ibid.; MacFarlane et al. 2002 Oncogene 21, 6809-6818). Mutants of His-TRAIL (residues 95-281) were generated using the Quik-Change site-directed mutagenesis kit (Stratagene, Calif.), confirmed by DNA sequencing, expressed in E. coli and purified as described (MacFarlane et al, 1997 ibid.). […] After 40 h of transfection the cells were collected and total TRAIL-R1 or TRAIL-R2 levels assessed. Where indicated, RNAi transfected MCF-7 cells were either left untreated or exposed to wt-TRAIL and apoptosis assessed by the extent of Bax activation, determined using the conformation specific Bax MAb, clone 3 (Dewson et al, 2003 Oncogene vol 22 pp 2643-54).
Apoptosis was quantified by measuring the processing of Caspase-8, Caspase-7 and PARP by Western blot analysis. […]

[2] = test system: TRAIL DISC in Jurkat cells; experiment: DISC analysis with biotinylated TRAIL in Jurkat cells; format: cell-based; conditions: biotinylated ligand 500 ng ml^−1, 30 min
Description: After exposure of the cells for 30 min, DISC complexes were isolated and analyzed for the indicated proteins by Western blotting. To provide an unstimulated receptor control (u/s), biotinylated wt or mutant TRAIL was added to lysate from untreated cells. C: Freshly isolated cells from patients with CLL were incubated for 16 h either alone or in the presence of depsipeptide (10 nM). […] The different symbols used indicate data from six individual patients and the solid line indicates the Mean.
Ramos or Jurkat cells (5×10^7 cells per treatment) were exposed to biotin-tagged recombinant His-TRAIL (biotinylated TRAIL) or one of its mutant forms (500 ng ml^−1) for 30 min and then DISC formation assessed as described previously (MacFarlane et al., 2002 ibid.).

TRAIL-R1 (DR4) = target: T2, TRAIL-R1 (DR4) (Homo sapiens, UniProt O00220); experiment: TRAIL-R1 selective apoptotic signalling (Ramos versus Jurkat cells); format: cell-based; conditions: from apoptosis in Ramos (TRAIL-R1) and Jurkat (TRAIL-R2) cells
T2 construct: Ramos and Jurkat cells, which signal predominantly through TRAIL-R1 and TRAIL-R2, respectively; endogenous in cells; host or cells: Ramos cells (Jurkat cells as TRAIL-R2 comparison)
From the text: Another test involves the assay of the effect in R1- (DR4-) only cells. This is the preferred test for DR4 selectivity as discussed herein. Preferably the ligand is applied to an R1-only signalling cell. Preferably the cell is a Ramos cell. Preferably the read-out is functional activity, preferably death-inducing activity (apoptosis). This is crucial to the test—mere binding is not as robust an indicator as functional induction of death. Thus, preferably a DR4 selective ligand according to the present invention induces death in a DR4 only signalling cell, such as a Ramos cell.
Ramos, an Epstein-Barr virus-negative Burkitt's lymphoma cell line, and Jurkat T cells (clone E6-1) were cultured as described (MacFarlane et al (2005 Cell Death and Differentiation vol 12 pages 773-782)). Blood samples were obtained from CLL patients, with patient consent and local ethical committee approval and CLL cells purified as described (MacFarlane et al (2002 Oncogene 21, 6809-6818). Cells were incubated for 16 h with depsipeptide (10 nM), provided by Dr. E. Sausville (NCI, USA). Cells were then cultured for a further 6 h with either HGSETR1 or HGS-ETR2, agonistic mAbs to TRAIL-R1 or -R2, respectively (Human Genome Sciences, Rockville, Md.), His-TRAIL-LE (a recombinant TRAIL with low endotoxin—Alexis Corporation, Nottingham, UK), His-TRAIL, a similar form of human recombinant TRAIL (MacFarlane et al (1997 J Biol Chem 272, 25417-25420)) but not further purified to reduce endotoxin levels or a mutant form of His-TRAIL as described (MacFarlane et al., 2005 ibid.). Cell lines were also pre-incubated for 30 min with a TRAIL-R1 blocking Ab and a TRAIL-R2 neutralizing Ab from Alexis and R&D systems, respectively, prior to exposure to TRAIL. Freshly isolated cells from patients with MCL were isolated, purified and incubated with different forms of TRAIL as described above for CLL cells. Samples were either analyzed immediately for apoptosis or stored at −80° C. for subsequent Western blotting. Other methods and reagents were as described (Inoue (2004 Cell Death Differ 11 Suppl 2, S193-206); MacFarlane et al., 2005 ibid).
Apoptosis was quantified by phosphatidylserine (PS) externalization in the presence of propidium iodide as described (MacFarlane et al., 2002 ibid.). Samples for Western blot analysis were prepared and caspase processing detected as described (Inoue et al., 2004 ibid.; MacFarlane et al., 2005 ibid.).
Referring to FIG. 4: Ramos cells (A) and Jurkat cells (B) were cultured with increasing concentrations of Arg191Leu or Asn199Val single mutants of His-TRAIL ([…]) or His-TRAIL (500 ng/ml), ETR1 or ETR2 (1000 ng/ml) for 4 h. Apoptosis was quantified by measuring the % PS+ cells and results shown in FIG. 4 are the Mean±SEM of three independent experiments. Thus the biological importance TRAIL residues R191 and N199 in TRAIL-R1 selectivity is shown.

[3] = target: TRAIL receptor 2 (TRAIL-R2) (Homo sapiens (Human)) (UniProt O14763)

| receptor selectivity of apoptotic activity (in words) (TRAIL-R1 (DR4)) | apoptosis of primary MCL cells after depsipeptide (5 nM, 16 h) [3] [%] | Molecule | recruitment and processing of Caspase-8 at the DISC [1] | DISC formation: receptor bound, FADD and caspase-8 recruitment [2] |
| --- | --- | --- | --- | --- |
| R1 selective apoptotic activity |  | TRAIL.R1-5: 6His TRAIL 95-281 with 193Ser, 199Val, 201Arg, 213Trp and 215Asp (protein, biotin (site not stated) in the DISC analysis only; not biotinylated in the apoptosis assays, 6His TRAIL 95-281 with 193Ser, 199Val, 201Arg, 213Trp and 215Asp) TSEETISTVQEKQQNISPLVRERGPQRVAAHITGTRGRSNTLSSPNSKNEKALGRKINSWESSRSGHSFLSNLHLRNGELVIHEKGFYYIYSQTYFRFSEEIKEVTRNDKQMVQYIYKWTDYPDPILLMKSARNSCWSKDAEYGLYSIYQGGIFELKENDRIFVSVTNEHLIDMDHEASFFGAFLVG | resulted in recruitment and processing Caspase-8 at the DISC | bound small amounts of both TRAIL-R1 and -R2 |
|  | 38.3 | HGS-ETR2 (antibody, INN chains, looked up, V domains shown) VH: EVQLVQSGGGVERPGGSLRLSCAASGFTFDDYGMSWVRQAPGKGLEWVSGINWNGGSTGYADSVKGRVTISRDNAKNSLYLQMNSLRAEDTAVYYCAKILGAGRGWYFDLWGKGTTVTVSS VL: SSELTQDPAVSVALGQTVRITCQGDSLRSYYASWYQQKPGQAPVLVIYGKNNRPSGIPDRFSGSSSGNTASLTITGAQAEDEADYYCNSRDSSGNHVVFGGGTKLTVL |  |  |
